Experimental data taken from the nanobody polyreactivity screen of Harvey et al. (2022).

Assay: yeast display, Sf9 membrane polyspecificity reagent, FACS + sequencing; frameworks hold sequencing errors
Summary of the method: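 Genes from sorted yeast were amplified by colony PCR, read by MiSeq 2 × 250 sequencing and filtered on CDR length. These cells carried a synthetic nanobody library in Saccharomyces cerevisiae BJ5465 and were sorted by FACS into low and high (top ~1%) gates on anti-HA and streptavidin fluorescence. Polyreactivity is labelled according to the gate of origin.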

Sequence | polyreactivity (PSR sort gate)
QVQLVESGGGLVQAGGSLRLSCAASGSIFEWNDMGWYRQAPGKEREFVAAITSTDDGTYYADSVKGRFTISRDNAKNTVYLQMNSLKPEVTAVYYCAVDYWDVPYYWGQGTQVTVSS | low polyreactivity
QVQLVESGGGLVQAGGSLRLSCAASGSIFEWYAMGWYRQAPGKERELVADISSVGSTYYADSVKGRFTISRDNAKNTVYLQMNSLKPEDTAVYYCNTTYIIWYDSWGQGTQVTVSS | low polyreactivity
QVQLVESGGGLVQAGGSLRLSCAASGSIFEYNAMGWYRQAPGKERELVAAISWSSGTTYYADSVKGRFTISRDNAKNTVYLQMNSLKPEDTAVNYCIAGRYGKDSDYWGQGTQVTVSS | low polyreactivity
QVQLVESGGGLVQAGGSLRLSCAASGSIFEYNAMGWYRQAPGKERELVAAITDTGSITYYADSVKGRFTISRDNAKNTVYLQMNSLKPEDTAVYYCAARAYPATAVDRRQPGNYWGQGSQVTVSS | low polyreactivity
QVQLVESGGGLVQAGGSLRLSCAASGSIFEYNDMGWYRQAPGKERELVAAITTGGRTSYADSVKGRFTISRDNAKNTVYLQMNSLKPEDTAVYYCAAEPPAEFWTDRLVDYYVGYDYWGQGTQVTVSS | low polyreactivity
QVQLVESGGGLVQAGGSLRLSCAASGSIFFDGNAMGWYRQAPGKERELVAAINSGGTTKYADSVKGRFTISRDNAKNTVYLQMNSLKPEDTAVYYCNAREGVFRYPVAHDYWGQGTQVTVSS | low polyreactivity
QVQLVESGGGLVQAGGSLRLSCAASGSIFFDGNAMGWYRQAPGKERELVAAISVSGGSTYYADSVKGRFTISRDNAKNTVYLQMNSLKPDDTAVYYCAKFPSKSYVPGDYWGQGTQVTVSS | low polyreactivity
QVQLVESGGGLVQAGGSLRLSCAASGSIFFDGNAMGWYRQAPGKERELVAAISVSGGSTYYADSVKGRFTISRDNAKNTVYLQMNSVKPEDTAVYYCAKYPSKSYVPGDYWGQGTQVTVSS | low polyreactivity
QVQLVESGGGLVQAGGSLRLSCAASGSIFFGNAMGWYRQAPGKERELVAAITRRGGSTYYADSVKGRFTISRDNEKNTVYLQMNSLKPEDTAVYYCKAVSKRYGYGYWGLGTQVTVSS | high polyreactivity
QVQLVESGGGLVQAGGSLRLSCAASGSIFFGYAMGWYRQAPGKERELVAGISSNGGTTYYADSVKGRFTISRDYAKNTVYLQMNSLKPEDTAVYYCAKQYYARGYLYDYWGQGTQVTVSS | low polyreactivity
QVQLVESGGGLVQAGGSLRLSCAASGSIFFGYGMGWYRQAPGKERELVATITTSGGTYYADSVKGRFTISRDNAKNTVYLQMNSLKPEDTAVYYCAATAAALDGNTIMYYWGQGTQVTVSS | low polyreactivity
QVQLVESGGGLVQAGGSLRLSCAASGSIFFIYAMAWYRQAPGKERELVATISRSDVSTFYADSVKGRFTISRDNAKNTVYLQMNSLKPEDTAVYYCAARTGRGDRTRRYYYWGQGTQVTVSS | high polyreactivity
QVQLVESGGGLVQAGGSLRLSCAASGSIFFLYAMGWYRQAPGKERELVAAISGGGGSTYYADSVKGRFTISRDNAKNTVYLQMNSLKPEDTAVYYCDALSKTRGGYWGQGTQVTVSS | high polyreactivity
QVQLVESGGGLVQAGGSLRLSCAASGSIFFNNAMGWYRQAPGKERELVAAITTGGSTYYADSVKGRFTISRDNAKNTVYLQMNSLKPEDTAVYYCAAVVVYPYRLGYDYWGQGTQVTVSS | low polyreactivity
QVQLVESGGGLVQAGGSLRLSCAASGSIFFNTMGWYIQAPGKERELVAAISRSGGSTYYADSVKGRFTISRDNAKNTVYLQMNSLKPEDTAVYYCNALRWSQYTYSSRLGHFDSWGQGTQVTVSS | high polyreactivity
QVQLVESGGGLVQAGGSLRLSCAASGSIFFNTMGWYRQAPGKERELVAAISRSGGSTYYADSVKGRFTISRDNAKNTVYLQMNSLKPEDTAVYYCNALRWSQYTYSSRLGHFDSWGQGTQVTVSS | high polyreactivity
QVQLVESGGGLVQAGGSLRLSCAASGSIFFPYAMGWYRQAPGKERELVARISWGAGRTYYADSVKGRFTISRDNAKNTVYLQMNSLKPEDTAVYYCAARDRTRYAGYNYWGQGTQVTVSS | high polyreactivity
QVQLVESGGGLVQAGGSLRLSCAASGSIFFPYVMGWYRQAPGKERELVAAIRRGGGSTYYADSVKGRFTISRDNAKNTVYLQMNSLKPEDTAVYYCAAKGWYVQHFKRGLYNYWGQGTQVTVSS | high polyreactivity
QVQLVESGGGLVQAGGSLRLSCAASGSIFFQNGMGWYRQAPGKERELVAAISSSGDSTYYADSVKGRFTISRDYAKNTVYLQMNSLKPEDTAVYYCAAEPEYVSGPYDYWGQGTQVTVSS | low polyreactivity
QVQLVESGGGLVQAGGSLRLSCAASGSIFFQYGMGWYRQAPGKEREFVAAISVSGGSTYYADSVKGRFTISRDNAKNTVYLQMNSLKPEDTAVYYCAAEFRGDTTSLVYASSYDYWGQGTQVTVSS | low polyreactivity
QVQLVESGGGLVQAGGSLRLSCAASGSIFFRNAMGWYRQAPGKEREFVAVINYSGGSTRYADSVKGRFTISRDNAKNTVYLQMNSLKPEDTAVYYCATRLYISKMYYWGQGTQVTVSS | high polyreactivity
QVQLVESGGGLVQAGGSLRLSCAASGSIFFSNDMGWYRQAPGKERELVASITRDGTSTYADSVKGRFTISRDNAKNTVYLQMNSLKPEETAVYYCAADRYLQGFYGRWHGYDSWGQGTQVTVSS | low polyreactivity
QVQLVESGGGLVQAGGSLRLSCAASGSIFFWYTMGWYRQAPGKERELVATITGSGSSTTYADSVKGRFTISRDNAKNTVYFQMNSLKPEDTAVYYCAAADIIDHSFPYDYWGQGTQVTVSS | low polyreactivity
QVQLVESGGGLVQAGGSLRLSCAASGSIFFWYTMGWYRQAPGKERELVATITGSGSSTTYADSVKGRFTISRDNAKNTVYLQMNSLKPEDTAVYYCAAADIIDHSFPYDYWGQGTQVTVSS | low polyreactivity
QVQLVESGGGLVQAGGSLRLSCAASGSIFFYAMGWYRQAPGKERELVADITYTGGSKYADSEKGRFTISRDNAKNTVYLQMNSLKPEETAVYSGATLDGGLFDDWGQGTQVTVSS | low polyreactivity
QVQLVESGGGLVQAGGSLRLSCAASGSIFFYNVMGWYRQAPGKERELVAAITRSGGRTYYADSVKGRFTISRDNAKNNVYLQMNSLKPEDTAVYYCAAALGGKFDYWGQGTQVTVSS | high polyreactivity
QVQLVESGGGLVQAGGSLRLSCAASGSIFFYYAMGWYRQAPGKERELVAAINWSGVNTYYADSVKGRFTISRDNAKNTVYLQMNSLKPEDTAVYYCNAVVSLTSYGYLGYRFDYWGQGTQVTVSS | low polyreactivity
QVQLVESGGGLVQAGGSLRLSCAASGSIFFYYAMGWYRQAPGKERELVASISTDGSTYADSVKGRFTISRDNAKNTVYLQMNSLKPEDTAVYYCATRGAEAERFASYDFDYWGQGTQVTVSS | low polyreactivity
QVQLVESGGGLVQAGGSLRLSCAASGSIFFYYAMGWYRQATGKERELVAAISIAGSTNYADSVKGRFTISRDNAKNTVYLQMNSLKPEDTAVYYCAKEYRWGQSQLDYWGQGTQVTVSS | low polyreactivity
QVQLVESGGGLVQAGGSLRLSCAASGSIFFYYTMGWYRQAPGKERELVAAITWSGGSTYYADSVKGRFTISRDNAKNTVYLQMNSLKPEDTAVYYCAAGTRLYYYRLNYWGQGTQVTVSS | high polyreactivity
